One series concerns the target T1, GH3-1 (Vitis vinifera, UniProt F6H697).
T1 construct: gene GH3.1_2
T1 sequence (F6H697 1-598): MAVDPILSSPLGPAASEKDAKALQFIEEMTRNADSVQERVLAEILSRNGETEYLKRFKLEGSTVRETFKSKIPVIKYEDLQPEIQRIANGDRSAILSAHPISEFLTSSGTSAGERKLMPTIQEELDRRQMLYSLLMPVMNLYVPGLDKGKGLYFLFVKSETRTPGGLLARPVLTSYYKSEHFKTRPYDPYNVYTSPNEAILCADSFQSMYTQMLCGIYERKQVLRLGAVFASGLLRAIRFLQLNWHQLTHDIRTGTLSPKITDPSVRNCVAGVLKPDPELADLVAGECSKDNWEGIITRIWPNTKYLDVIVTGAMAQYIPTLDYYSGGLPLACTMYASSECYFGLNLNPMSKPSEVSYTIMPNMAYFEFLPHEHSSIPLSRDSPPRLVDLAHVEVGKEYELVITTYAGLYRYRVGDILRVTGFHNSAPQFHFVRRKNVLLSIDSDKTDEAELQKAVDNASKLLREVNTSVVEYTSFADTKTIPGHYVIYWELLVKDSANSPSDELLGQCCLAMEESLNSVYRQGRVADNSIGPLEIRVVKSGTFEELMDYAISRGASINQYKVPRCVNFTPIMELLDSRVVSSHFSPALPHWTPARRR
In words: IAA-Asp formation by LC-ESI-MS/MS with recombinant enzyme; Dixon plots. The series is classed as biochemical.

Substrate in series [1]: Nc1ncnc2c1ncn2[C@@H]1O[C@H](COP(=O)(O)OP(=O)(O)OP(=O)(O)O)[C@@H](O)[C@H]1O
The series can be described thus: Michaelis-Menten kinetics (Km), LC-ESI-MS/MS of IAA-Asp. The class given is biochemical, Vitis vinifera. Particulars: Mg2+ catalytic site.

Substrate in series [2]: O=C(O)Cc1c[nH]c2ccccc12
The description is as above. Particulars: MgATP catalytic site. The class given is biochemical, Vitis vinifera.

For `Nc1ncnc2c1ncn2[C@@H]1O[C@H](COP(=O)(O)OCCc2c[nH]c3ccccc23)[C@@H](O)[C@H]1O` [AIEP, adenosine-5′-[2-(1H-indol-3-yl)ethyl]phosphate], at GH3-1, the Ki (in general, the dissociation constant of the complex between target and ligand, obtained from inhibition or displacement) was determined as 200 nM.

B1: GH3-1 (Vitis vinifera) (protein)
chain: MAVDPILSSPLGPAASEKDAKALQFIEEMTRNADSVQERVLAEILSRNGETEYLKRFKLEGSTVRETFKSKIPVIKYEDLQPEIQRIANGDRSAILSAHPISEFLTSSGTSAGERKLMPTIQEELDRRQMLYSLLMPVMNLYVPGLDKGKGLYFLFVKSETRTPGGLLARPVLTSYYKSEHFKTRPYDPYNVYTSPNEAILCADSFQSMYTQMLCGIYERKQVLRLGAVFASGLLRAIRFLQLNWHQLTHDIRTGTLSPKITDPSVRNCVAGVLKPDPELADLVAGECSKDNWEGIITRIWPNTKYLDVIVTGAMAQYIPTLDYYSGGLPLACTMYASSECYFGLNLNPMSKPSEVSYTIMPNMAYFEFLPHEHSSIPLSRDSPPRLVDLAHVEVGKEYELVITTYAGLYRYRVGDILRVTGFHNSAPQFHFVRRKNVLLSIDSDKTDEAELQKAVDNASKLLREVNTSVVEYTSFADTKTIPGHYVIYWELLVKDSANSPSDELLGQCCLAMEESLNSVYRQGRVADNSIGPLEIRVVKSGTFEELMDYAISRGASINQYKVPRCVNFTPIMELLDSRVVSSHFSPALPHWTPARRR
Take B1: in series [1], the Km (commonly the substrate concentration at which the rate is half of its maximum) stood at 13.2 ± 1.4 µM; the Vmax (commonly the rate approached at saturating substrate) came out at 0.261 µmol/min/mg; the kcat – broadly, the maximal rate divided by the concentration of active sites – amounted to 0.3 s⁻¹. In series [2], the Km is 21.1 ± 1.4 µM, the Vmax was 0.384 µmol/min/mg and the kcat turned out to be 0.442 s⁻¹.
